{
  "source": "patent US20160168251A1",
  "about": "(MorphoSys, published 2016)",
  "key": {"[1]": {"biological_target": "T1, human NPRA on HEK293 cells, without added ligand (human, UniProt P16066 33-1061)", "T1 construct": "a signal peptide is not delimited; also called HEK NPRA cells; HEK hNPRA cells", "T1 sequence": "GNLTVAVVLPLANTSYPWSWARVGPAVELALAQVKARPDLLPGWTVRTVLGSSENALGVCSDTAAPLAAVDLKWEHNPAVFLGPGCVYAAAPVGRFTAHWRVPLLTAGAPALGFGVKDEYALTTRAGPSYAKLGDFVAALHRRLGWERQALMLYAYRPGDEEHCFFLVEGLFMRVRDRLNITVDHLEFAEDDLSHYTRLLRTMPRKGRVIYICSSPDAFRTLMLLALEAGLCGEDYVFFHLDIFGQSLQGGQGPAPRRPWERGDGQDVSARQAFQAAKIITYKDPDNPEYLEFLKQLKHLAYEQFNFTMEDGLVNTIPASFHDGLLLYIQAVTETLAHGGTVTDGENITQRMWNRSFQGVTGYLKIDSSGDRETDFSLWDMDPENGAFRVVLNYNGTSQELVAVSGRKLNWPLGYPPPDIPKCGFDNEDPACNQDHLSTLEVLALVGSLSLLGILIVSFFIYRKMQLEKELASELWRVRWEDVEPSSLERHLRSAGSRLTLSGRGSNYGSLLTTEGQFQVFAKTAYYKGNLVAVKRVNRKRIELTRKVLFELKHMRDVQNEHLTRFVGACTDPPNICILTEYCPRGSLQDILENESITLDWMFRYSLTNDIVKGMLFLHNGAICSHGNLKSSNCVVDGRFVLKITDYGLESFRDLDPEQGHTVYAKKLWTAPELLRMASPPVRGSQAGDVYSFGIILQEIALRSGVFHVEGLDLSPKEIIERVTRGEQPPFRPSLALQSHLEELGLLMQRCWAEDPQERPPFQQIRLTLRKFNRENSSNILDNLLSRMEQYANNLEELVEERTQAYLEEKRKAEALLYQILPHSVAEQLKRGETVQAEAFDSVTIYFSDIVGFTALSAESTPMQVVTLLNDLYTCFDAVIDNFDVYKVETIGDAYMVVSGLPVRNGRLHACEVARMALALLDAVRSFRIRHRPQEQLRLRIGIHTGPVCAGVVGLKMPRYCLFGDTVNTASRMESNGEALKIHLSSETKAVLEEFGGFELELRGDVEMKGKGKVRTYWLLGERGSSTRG", "assay": "FACS, HEK NPRA cells without ligand"}, "[2]": {"biological_target": "T2, biotinylated ANP (UniProt P01160 124-151, biotin label (position not given))", "T2 construct": "mature; Text: conjugated to Streptavidin beads; also called biotin-labeled ANP", "T2 peptide (looked up)": "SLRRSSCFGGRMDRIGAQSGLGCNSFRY", "assay": "binding to biotinylated ANP on streptavidin, ECL readout (legend: ELISA)"}, "[3]": {"biological_target": "T3, NPRA-Fc fusion protein, without ligand (human)", "T3 construct": "also called NPRA-ECD-Fc; recombinant NPRA-Fc", "T3 chain": "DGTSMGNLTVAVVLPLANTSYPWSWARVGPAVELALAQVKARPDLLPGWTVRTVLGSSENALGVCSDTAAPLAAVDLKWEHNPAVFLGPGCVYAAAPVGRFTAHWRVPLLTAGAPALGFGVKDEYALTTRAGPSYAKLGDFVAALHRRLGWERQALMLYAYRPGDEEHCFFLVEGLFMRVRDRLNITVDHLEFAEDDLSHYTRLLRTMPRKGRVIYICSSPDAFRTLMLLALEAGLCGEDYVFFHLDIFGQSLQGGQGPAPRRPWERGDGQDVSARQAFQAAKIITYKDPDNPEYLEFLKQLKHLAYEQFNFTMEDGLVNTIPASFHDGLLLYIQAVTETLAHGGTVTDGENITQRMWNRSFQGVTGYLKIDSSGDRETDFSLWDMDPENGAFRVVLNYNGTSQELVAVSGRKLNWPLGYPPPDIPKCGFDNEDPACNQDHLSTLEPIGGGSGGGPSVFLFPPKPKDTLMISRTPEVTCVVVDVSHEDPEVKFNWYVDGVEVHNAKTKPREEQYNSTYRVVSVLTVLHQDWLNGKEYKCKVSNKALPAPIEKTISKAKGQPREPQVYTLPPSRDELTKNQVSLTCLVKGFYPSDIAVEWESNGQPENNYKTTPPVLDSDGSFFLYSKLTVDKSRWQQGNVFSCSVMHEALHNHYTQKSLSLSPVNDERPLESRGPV", "assay": "ELISA on captured NPRA-Fc without ligand"}},
  "data": [
    {"binder": "5064 Fab-dHLX (other) VH: QVQLQQSGPGLVKPSQTLSLTCAISGDSVSSRSASWSWIRQSPGRGLEWLGRIYYRSKWYNDYAVSVKSRITINPDTSKNQFSLQLNSVTPEDTAVYYCARMDVPSFRYFDVWGQGTLVTVSS VL: not shown", "values": [
      {"measurement": "binding result", "setting": "[1]", "result": "no binding (tested: 20 µg/ml)"},
      {"measurement": "binding result", "setting": "[2]", "result": "no binding (tested: 10 nM)"},
      {"measurement": "binding result", "setting": "[3]", "result": "no binding (tested: 20 µg/ml)"}
    ]}
  ]
}
